Test results reported in patent publication US20200109202A1.
pKd: −log10 of the molar value.

Assays:
[1] = target: human CD16A-158V ECD fused to monomeric Fc (human) (UniProt P08637); assay: SPR, Biacore T200, receptor captured, 1:1 model
[2] = target: human CD16A-158F ECD fused to monomeric Fc (human) (UniProt P08637); assay: SPR, Biacore T200, receptor captured, 1:1 model
human CD16A-158F ECD fused to monomeric Fc (human), sequence (P08637 17-208): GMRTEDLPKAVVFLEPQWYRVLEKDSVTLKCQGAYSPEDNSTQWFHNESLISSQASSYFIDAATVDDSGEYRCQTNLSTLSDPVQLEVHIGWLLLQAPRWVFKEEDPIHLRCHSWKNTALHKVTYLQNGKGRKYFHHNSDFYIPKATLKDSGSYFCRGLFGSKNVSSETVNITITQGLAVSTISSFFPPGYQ

human CD16A-158V ECD fused to monomeric Fc (human), sequence (P08637 17-208 F176V): as the sequence (P08637 17-208) above, with F160V counted along it

human IgG1 Fc-enhanced (S239D/I332E) (antibody)
pKd [1]: 7.87
koff [1]: 0.00639 s⁻¹
kon [1]: 474000 M⁻¹ s⁻¹

human IgG1 Fc-silenced (L234F/L235E/D265A) (antibody)
pKd [2]: 4.46
koff [2]: 0.71 s⁻¹
kon [2]: 20400 M⁻¹ s⁻¹

human IgG1 (IgG1 Fc wildtype) (antibody)
pKd [1]: 6.37
koff [1]: 0.00995 s⁻¹
kon [1]: 23500 M⁻¹ s⁻¹
pKd [2]: 5.57
koff [2]: 0.0675 s⁻¹
kon [2]: 24800 M⁻¹ s⁻¹
